Assay results from PMC5606096, “High-level expression and characterization of a novel cutinase from Malbranchea cinnamomea suitable for butyl butyrate production” (Biotechnology for Biofuels, 2017).

Columns and labels:
[1] = test system: T1, CCCCCC(=O)Oc1ccc([N+](=O)[O-])cc1; assay: p-nitrophenol release, Michaelis-Menten fit (GraFit); format: biochemical, Malbranchea cinnamomea; settings: 50 mM Tris-HCl pH 8.0, 45 °C, 5 min
T1 construct: signal peptide (16 residues) removed, 215-residue precursor; pPIC9K secreted from Pichia pastoris GS115; purified on Q Sepharose; no tag mentioned

[2] = test system: T2, CCCC(=O)Oc1ccc([N+](=O)[O-])cc1; assay: as above; format: biochemical, Malbranchea cinnamomea; settings: 50 mM Tris-HCl pH 8.0, 45 °C, 5 min
T2 construct: signal peptide (16 residues) removed, 215-residue precursor; pPIC9K secreted from Pichia pastoris GS115; purified on Q Sepharose; no tag mentioned

Sequence of McCut (Malbranchea cinnamomea) (chain, as listed by the source): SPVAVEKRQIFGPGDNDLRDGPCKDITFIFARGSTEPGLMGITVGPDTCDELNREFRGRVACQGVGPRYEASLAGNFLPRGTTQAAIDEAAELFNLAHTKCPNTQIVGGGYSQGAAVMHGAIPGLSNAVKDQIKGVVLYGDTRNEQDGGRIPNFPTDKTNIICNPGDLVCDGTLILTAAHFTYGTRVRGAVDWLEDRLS

McCut (Malbranchea cinnamomea) was tested, and the Km [1] was 270 µM, the kcat [1] was 0.46 s⁻¹ and the Km [2] was 660 µM. It also gave a kcat [2] of 0.46 s⁻¹.
